Literature values in article PMC9458874.
pKd: −log10 of the molar value.

Target: HAB1 (Arabidopsis thaliana) (UniProt Q9CAJ0)
UniProt Q9CAJ0, sequence (Q9CAJ0 23-511): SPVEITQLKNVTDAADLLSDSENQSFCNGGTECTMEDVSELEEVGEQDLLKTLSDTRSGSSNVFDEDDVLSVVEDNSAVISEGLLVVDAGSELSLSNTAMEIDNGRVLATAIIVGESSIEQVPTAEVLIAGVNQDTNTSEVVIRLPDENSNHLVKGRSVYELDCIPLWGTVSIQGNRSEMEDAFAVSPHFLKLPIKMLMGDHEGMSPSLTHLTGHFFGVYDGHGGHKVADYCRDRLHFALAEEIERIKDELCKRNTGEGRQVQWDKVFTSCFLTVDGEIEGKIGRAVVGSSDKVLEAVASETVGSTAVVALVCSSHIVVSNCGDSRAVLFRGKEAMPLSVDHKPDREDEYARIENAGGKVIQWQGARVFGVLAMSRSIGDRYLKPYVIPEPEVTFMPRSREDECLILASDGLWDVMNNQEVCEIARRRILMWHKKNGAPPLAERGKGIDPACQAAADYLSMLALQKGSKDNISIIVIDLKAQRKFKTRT

PYR1 (from UniProt O49686)
pKd: 7.52
